Reference: patent US10323078B2, “Isolated peptides and fragments thereof from fibrinogen for use as drugs, particularly in skin inflammatory diseases” (Universite Paris Descartes, priority 2015, dated 2019)

Experiments:
[1] = test system: HaCaT, NHDK, THP-1, MRC5 and HDF; assay: H2O2 production by cells stimulated with P. acnes, overall statement for the five cell lines; assay type: cell-based, human; settings: pretreatment of P. acnes strains with small peptide 2.5 to 20 μM; five cell lines and three strains tested
Procedure: FIG. 17: Dose-dependent inhibition of H2O2 production by fibroblast pre-treated by small Fg1-generated peptides and stimulated by P. acnes. MRC5 cell were incubated for 24 h with small peptides Fg1.1 (light gray bar), Fg1.2 (horizontal line bar), Fg1.3 (hatched bar), Fg1.4 (dark gray bar), Fg1.5 (dotted bar) at concentrations ranging from 2.5 to 20 μM. Measurement of hydrogen peroxide production was realized by spectrofluorometry as described in Materials and Methods. Controls experiments were done with unstimulated MRC5 cell (white bar) and MRC5 stimulated with P. acnes (black bar). Data are means±S.D. of three separate experiments. Statistical significance is indicated by * (P<0.05), ** (P<0.01), *** (P<0.001), and **** (P<0.0001), respectively.
All cells lines (5·10^4 to 10^5 cells/well) were seeded in 96-well plates (Corning Costar, Brumath, France) and treated as previously described. After stimulation, cells were washed three times in PBS and incubated with 100 μl per wells of 5 μM DHE (for determination of O2^●−) or 5 μM H2-DCFDA (for determination of H2O2) for 30 min as described previously and fluorescence intensity was recorded every hour over a period of 5 h. Fluorescence excitation/emission maxima were for DHE: 480/610 nm and for H2-DCFDA: 507/525 nm. At the end of the experiment, the number of adherent cells was evaluated by the crystal violet assay as described below. O2^●−, and H2O2 were assayed by spectrofluorimetry on a Fusion spectrofluorimeter (PackardBell, Paris, France). Levels of ROS were calculated in each sample as follows: reactive oxygen species rate (arbitrary units/min/10^6 cells)=(fluorescence intensity [arbitrary units] at T5h—fluorescence intensity [arbitrary units] at To/300 minutes/number of adherent cells as measured by the crystal violet assay, and were expressed as arbitrary unit (A.U.).
To assess the efficacy of the small Fg1-related peptide, the production of H2O2 by several cell lines (HaCaT, NHDK, THP-1, MRC5 and HDF) stimulated by three P. acnes strains 6919, RON and PIE was measured, in presence or not with the small peptides. The amount of H2O2 produced is compared to that produced by the stimulated cells with untreated bacteria. Production baseline is obtained by measuring H2O2 on unstimulated cells. The measurement of the production of H2O2 is performed by spectrofluorimetry in the presence of specific fluorochromes directly on the monolayer cell.
Two sets of experiments have been implemented: • I) The cells are stimulated (18 h at 37° C.) by P. acnes strains previously pretreated with Fg1.1, Fg1.2, Fg1.3, Fg1.4, and Fg1.5 small peptides at the final concentrations ranging from 2.5 to 20 μM for 1 h at 37° C.; • II) The cells are pretreated first with the five small peptides at the final concentrations ranging from 2.5 to 20 μM for 24 h at 37° C. and stimulated (18 h at 37° C.) by P. acnes strains.
FIG. 17 corresponds to the results obtained with the P. acnes RON strain on the fibroblast MRCS cell line and are representative of the results obtained with all P. acnes and cells lines tested (Table 6).

[2] = test system: Pfg; assay: Western ligand blot with biotinylated Pfg; assay type: binding, Propionibacterium acnes; settings: biotinylated Pfg 0.1 μg/ml; for Recognition of GST-fused recombinant Bß fibrinogen fragments by biotinylated Pfg: E. coli total protein after IPTG induction, 12.5% SDS-PAGE; for Recognition by biotinylated Pfg after electrophoretic separation of fibrinogen: 10 μg per lane, 10% SDS-PAGE
Procedure: FIG. 5: Binding of P. acnes surface proteins to fibrinogen. (A) Various quantities of human fibrinogen (hFg) and bovine fibrinogen (bFg) were immobilized onto a 96-well polystyrene plate at 4° C. for 18 h and incubated with biotinylated Pfg at 0.1 μg/ml for 2 h at 23° C. Bovine serum albumin (BSA) was used as negative control. Bound material was detected by using the HRP-streptavidin conjugate. Peroxidase activity was measured by using the ABTS substrate at 405 nm. Proteins (10 μg per lane) were separated by 10% SDS-PAGE and detected by (B) Commassie blue staining, and transferred to nitrocellulose membrane and incubated with (C) HRP-streptavidine alone, and (D) biotinylated Pfg (0.1 μg/ml). Lanes 1: molecular weight standards. Lane 2: BSA. Lane 3: hFg. Lane 4: bFg.
FIG. 8: Cloning of Bß human fibrinogen fragments and binding with Pfg. (A) Cloning and expression of recombinant human Bß fibrinogen fragments Fg1, Fg2, Fg3 and Fg4. Fibrinogen fragments were obtained by RT-PCR and expression plasmids were constructed as described in Materials and Methods. (B) GST-fused proteins were expressed in E. coli, fractionated by 12.5% SDS-PAGE, and detected by Coomassie blue staining (B), and incubated with biotinylated Pfg (0.1 μg/ml) as described in Materials and Methods (C).
To characterize the interaction between P. acnes and ligands, we used biotinylated molecules in quantitative and qualitative assays. In a first set of assays, ECM ligands (fibrinogen, collagens I, IV, VI and VIII) were used as labelled proteins with biotin. In a second set of assays, P. acnes surface proteins (total extract and purified Pfg) were biotinylated. For quantitative analysis, unlabeled protein were diluted into 50 mM carbonate-bicarbonate, pH 9.6 buffer to yield a protein concentration ranging from 0.01 to 50 μg/ml, and then immobilized to 96-well polystyrene plates at 4° C. overnight. The wells were rinsed three times with 0.2 ml of PBS containing 0.05% Tween-20 (PBS-Tween). Biotinylated proteins (0.01 to 16 μg/ml in PBS-Tween) were added to the wells and incubated at room temperature for 1 h. The wells were rinsed three times with 0.2 ml of PBS-Tween. Peroxidase conjugated to streptavidin (0.5 μg/ml in PBS-Tween) was added and incubated for 30 min at room temperature. After washing, bound peroxidase was detected using the chromogenic peroxidase substrate ABTS. For qualitative analysis, unlabelled protein (10-75 μg per lane) were separated by SDS-PAGE and then transferred to nitrocellulose membranes (0.45 μm pore size), as described previously (Towbin, 1979). Membranes were then saturated overnight at 4° C. in PBS containing 5% BSA, 0.05% Tween-20 (PBT buffer). Binding activity was detected by incubating the membranes with 20 ml of PBT containing biotinylated proteins (0.1 μg/ml) for 2 h at room temperature followed by three washes with PBT. Bound biotinylated proteins were detected by incubating the membrane with peroxidase conjugated to streptavidin (0.5 μg/ml in PBT) for 1 h at room temperature. After washing, bound peroxidase activity was detected using 3,3′-diaminobenzidine in the presence of CoCl2 and H2O2 (Harlow and Lane, 1988).
Since it was shown that Pfg is recognized by fibrinogen, this ECM ligand was used to analyze the nature of this interaction. First it was analyzed the ability of fibrinogen to be recognized by purified Pfg (FIG. 5). Human and bovine Fg (hFg, bFg) were immobilized to polysterene plate and the binding activity of biotinylated Pfg was measured. […] It has been shown that fibrinogen is a glycoprotein containing both N- and O-linked glycans (Debeire 1985; Reid Townsend 1982; L'Hôte 1996). […] In parallel, deglycosylation was assessed by visualization of a shift in the mobility after electrophoresis separation and Coomassie blue staining (FIG. 6A, lanes 3 and 5) and also by using the RCA-I plant lectin able to recognize ß-linked galactosyl residues in terminal position (FIG. 6C) (Green, 1987). […]

APSLRPAPPPISGGGYRARPAKAAATQKKV (fragment Fg1.5) [small peptide generated from Fg1, overlapping Fg1.2 and Fg1.3]
Inhibition of H2O2 production [1]: did not

NEEGFFSARGHRPLDKKREEAPSLRPAPPPISGGG (fragment Fg1.2) [small peptide generated from Fg1]
Inhibition of H2O2 production [1]: did not

YRARPAKAAATQKKVERKAPDAGGCLHADPDLGVLC (fragment Fg1.3) [small peptide generated from Fg1]
Inhibition of H2O2 production [1]: did not

B1: KLESDVSAQMEYCRTPCTVSCNIPVVSGKECEEIIRKGGETSEMYLIQPDSSVKPYRVYCDMNTENGGWTVIQNRQDGSVDFGRKWDPYKQGFGNVATNTDGKNYCGLPGEYWLGNDKISQLTRMGPTELLIEMEDWKGDKVKAHYGGFTVQNE (protein)
chain: KLESDVSAQMEYCRTPCTVSCNIPVVSGKECEEIIRKGGETSEMYLIQPDSSVKPYRVYCDMNTENGGWTVIQNRQDGSVDFGRKWDPYKQGFGNVATNTDGKNYCGLPGEYWLGNDKISQLTRMGPTELLIEMEDWKGDKVKAHYGGFTVQNE
modifications: fragment Fg3
notes: recombinant fragment of Bß sub-unit of human fibrinogen
Recognition of GST-fused recombinant Bß fibrinogen fragments by biotinylated Pfg [2]: only Fg1 was recognized

B2: γ subunit: γ chain of fibrinogen (protein, UniProt P02679 27-453, looked up)
Fibrinogen gamma chain: YVATRDNCCILDERFGSYCPTTCGIADFLSTYQTKVDKDLQSLEDILHQVENKTSEVKQLIKAIQLTYNPDESSKPNMIDAATLKSRKMLEEIMKYEASILTHDSSIRYLQEIYNSNNQKIVNLKEKVAQLEAQCQEPCKDTVQIHDITGKDCQDIANKGAKQSGLYFIKPLKANQQFLVYCEIDGSGNGWTVFQKRLDGSVDFKKNWIQYKEGFGHLSPTGTTEFWLGNEKIHLISTQSAIPYALRVELEDWNGRTSTADYAMFKVGPEADKYRLTYAYFAGGDAGDAFDGFDFGDDPSDKFFTSHNGMQFSTWDNDNDKFEGNCAEQDGSGWWMNKCHAGHLNGVYYQGGTYSKASTPNGYDNGIIWATWKTRWYSMKKTTMKIIPFNRLTIGEGQQHHLGGAKQVRPEHPAETEYDSLYPEDDL
Recognition by biotinylated Pfg after electrophoretic separation of fibrinogen [2]: No recognition

B3: Bß subunit: sub-unit Bß of human fibrinogen, SEQ ID NO: 1 (protein)
chain: MKRMVSWSFHKLKTMKHLLLLLLCVFLVKSQGVNDNEEGFFSARGHRPLDKKREEAPSLRPAPPPISGGGYRARPAKAAATQKKVERKAPDAGGCLHADPDLGVLCPTGCQLQEALLQQERPIRNSVDELNNNVEAVSQTSSSSFQYMYLLKDLWQKRQKQVKDNENVVNEYSSELEKHQLYIDETVNSNIPTNLRVLRSILENLRSKIQKLESDVSAQMEYCRTPCTVSCNIPVVSGKECEEIIRKGGETSEMYLIQPDSSVKPYRVYCDMNTENGGWTVIQNRQDGSVDFGRKWDPYKQGFGNVATNTDGKNYCGLPGEYWLGNDKISQLTRMGPTELLIEMEDWKGDKVKAHYGGFTVQNEANKYQISVNKYRGTAGNALMDGASQLMGENRTMTIHNGMFFSTYDRDNDGWLTSDPRKQCSKEDGGGWWYNRCHAANPNGRYYWGGQYTWDMAKHGTDDGVVWMNWKGSWYSMRKMSMKIRPFFPQQ
modifications: homo sapiens; sub-unit Bbeta of fibrinogen
Recognition by biotinylated Pfg after electrophoretic separation of fibrinogen [2]: strongly recognized

B4: PTELLIEMEDWKGDKVKAHYGGFTVQNEANKYQISVNKYRGTAGNALMDGASQLMGENRTMTIHNGMFFSTYDRDNDGWLTSDPRKQCSKEDGGGWWYNRCHAANPNGRYYWGGQYTWDMAKHGTDDGVVWMNWKGSWYSMRKMSMKIRPFFPQ (protein)
chain: PTELLIEMEDWKGDKVKAHYGGFTVQNEANKYQISVNKYRGTAGNALMDGASQLMGENRTMTIHNGMFFSTYDRDNDGWLTSDPRKQCSKEDGGGWWYNRCHAANPNGRYYWGGQYTWDMAKHGTDDGVVWMNWKGSWYSMRKMSMKIRPFFPQ
modifications: fragment Fg4
notes: as for B1
Recognition of GST-fused recombinant Bß fibrinogen fragments by biotinylated Pfg [2]: only Fg1 was recognized
